{"source": "paper PMC7556464", "about": "“4CMenB vaccine induces elite cross-protective human antibodies that compete with human factor H for binding to meningococcal fHbp” (PLoS Pathogens, 2020)", "binders": {"B1": {"name": "human anti-fHbp mAb 4B10 (antibody, V domains shown)", "VH": "EVQLVESGGGLVKPGGSLRLSCAASGFAFSTYSLHWVRQAPGKGLEWVSAITSSGSFLYYADSLKGRFTVSRDNAKNSLFLQMNSLRAGDTAVYYCARALQVEDGFPMFSGLDVWGQGTTVTVSS", "VL": "QTVVTQPPSVSEAPRQRVAISCSGSSSNIGDNSVSWYQQLPGKAPKLLIYDDDLLPSGVSDRFSASKSGTSASLAISGLQSEDEAEYYCAAWDDSLKGVVFGGGTKLTVL", "notes": "IgG1; source: Expi293, transient transfection, purified (protein G Sepharose)"}, "B2": {"name": "human anti-fHbp mAb 1E10 (antibody, V domains shown)", "VH": "QVQLVESGGDLVKPGGSLRLSCVASGFTFSSYTMNWVRQAPGKGLEWVSSITSSSSFTYYADSVKGRFIISRDNAKNSLSLQMNNLRVEDTATYYCARRKDSSDYDWYYYYGMDVWGLGTTVTVSS", "VL": "QSVVTQPPSVSAAPGQKVTISCSGSSSNIGDNYMSWYQQIPGTAPKLLIFDNDQRPSGIPDRFSASKSGTSATLDITGFQTGDEADYYCGTWDSGLSAPVFGGGTKLTVL", "notes": "as for B1"}, "B3": {"name": "human anti-fHbp mAb 2G1 (antibody, V domains shown)", "VH": "QVQLVESGGDLVKPGGSLRLSCVASGFTFSSYTMNWVRQAPGKGLEWVSSITSSSSFTYYADSVKGRFIISRDNAKNSLSLQMNNLRVEDTATYYCARRKDSSDYDWYYYYGMDVWGLGTTVTVSS", "VL": "QSVLTQPPSVSAAPGQKVTISCSGSSSNIGDNYMSWYQQIPGTAPKLLIFDNDQRPSGIPDRFSASKSGTSATLDITGFQTGDEADYYCGTWDSGLSAPVFGGGTKLTVL", "notes": "as for B1"}, "B4": {"name": "human anti-fHbp mAb 3B7 (antibody, V domains shown)", "VH": "EVQLVQSGAEVKKPGSSVKVSCKASGDTFSNYPISWVRQAPGQGLEWMGGIIPIFGTANYAQKFQGRVTITADESTSTPYMELSSLRSEDTAVYYCARGDTAMAPFDYWGQGTLVTVSS", "VL": "SYVLTQPPSVSVAPGKTARITCGGNSIGSKSVHWYQQKPGQAPVLVIYYDSDRPSGVPERISGSNSGNTATLTISRVEAGDEADYYCQVWDSSSDSWVFGGGTKLTVL", "notes": "source: Expi293, transient transfection, purified (protein G Sepharose)"}, "B5": {"name": "human anti-fHbp mAb 1D1 (antibody, V domains shown)", "VH": "QVQLVGSGGGLVKPGGSLRLSCAASGFTFSSYTMNWVRQAPGKGLEWVSSISSSSGYIYYADSLKGRFTISRDDAKNSLFLQMNSLRAEDTAVYFCARDKVLPAPPGFYGLDVWGPGTTVTVSS", "VL": "QSVVTQPPSVSAAPGQKVTISCSGSSSNIEDNFVSWYQQLPGTAPKLLIYDNNQRPSGIPDRFSGSKSGTSATLGITGLQTGDEADYYCATWDNSLSARVFGGGTKLTVL", "notes": "as for B1"}, "B6": {"name": "human anti-fHbp mAb 3F1 (antibody, V domains shown)", "VH": "EVHLVESGGGLVKPGGSLRLSCAASGFTFSSYTMNWVRQAPGKGLEWVSSISSSSGYIYYADSLKGRFTISRDNAKNSLFLQMNSLRAEDTAVYFCARDKVLPAPPGFYGLDVWGPGTTVTVSS", "VL": "QSVVTQPPSVSAAPGQKVTISCSGSSSNIEDNFVSWYQQLPGTAPKLLIYDNNQRPSGIPDRFSGSKSGTSATLGITGLQTGDEADYYCATWDNSLSARVFGGGTKLTVL", "notes": "as for B1"}, "B7": {"name": "human anti-fHbp mAb 2C8 (antibody, V domains shown)", "VH": "QVQLVQSGAEVKKPGSSVKVSCKASGGTVINYPISWVRQVPGQGLEWMGRLVPLFGTPNYGQKFQGRITITADKSTSAAYMELIGLKSEDTAVYYCARGDTAMAPFDYWGHGTLVTVSS", "VL": "QLVLTQPPSVSVAPGKTATITCGGNNVGGKTVHWYQQKPGQAPVLVMSYDSDRPSGIPERFSGSNSGNTATLTISRVEAEDEADYYCQVWHGNDDHWVFGGGTKLTVL", "notes": "as for B1"}, "B8": {"name": "human anti-fHbp mAb 5F12 (antibody, V domains shown)", "VH": "EVQLVESGGDLVKPGGSLRLSCAASGFTFSNYTMNWVRQAPGKGLEWVSSITSSSSFKYYADSVKGRFTISRDNAKNSVFLQMNSLRAEDTAIYYCARRIDSSDQDWFYYYGMDVWGLGTTVTVSS", "VL": "QSVLTQPPSVSAAPGQRVTISCSGSSSNIGDNYISWYQQLPGTAPKLLIYDNDQRPSGTPDRFSASKSGTSATLGVTGLQTGDEADYYCGTWDSSLNAPVFGSGTKVTVL", "notes": "as for B1"}}, "experiment_in_all_cases": "SPR", "details_in_all_cases": "both partners purified", "key": {"[1]": {"molecular_target": "T1, factor H binding protein (fHbp) variant 1.1, recombinant (Neisseria meningitidis MC58, fHbp v1.1)", "T1 construct": "also called fHbp v1.1; fHbp v1; source: E. coli BL21(DE3), purified (Ni-NTA, SEC when necessary); not shown: His6, C-terminal, kept", "T1 chain": "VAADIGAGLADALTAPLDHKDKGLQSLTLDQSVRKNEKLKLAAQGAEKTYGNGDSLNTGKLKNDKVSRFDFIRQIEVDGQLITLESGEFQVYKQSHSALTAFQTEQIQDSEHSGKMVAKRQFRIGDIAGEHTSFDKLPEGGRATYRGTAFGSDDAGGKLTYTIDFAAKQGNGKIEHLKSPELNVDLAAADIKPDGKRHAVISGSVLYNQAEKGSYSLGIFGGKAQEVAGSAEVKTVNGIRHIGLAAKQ"}, "[2]": {"molecular_target": "T2, factor H binding protein (fHbp) variant 3.28, recombinant (Neisseria meningitidis M1239, fHbp v3.28, UniProt Q19KF7, strain)", "T2 construct": "also called fHbp v3.28; fHbp v3; source: E. coli BL21(DE3), purified (Ni-NTA, SEC when necessary)"}, "[3]": {"molecular_target": "T3, factor H binding protein (fHbp) variant 2.16, recombinant (Neisseria meningitidis 961-5945, UniProt Q6VS19, strain)", "T3 construct": "also called fHbp v2.16; fHbp v2; source: E. coli BL21(DE3), purified (Ni-NTA, SEC when necessary)"}}}
{"binder": "B1", "values": [{"measurement": "Kd", "setting": "[1]", "result": 0.296, "unit": "nM"}, {"measurement": "Kd", "setting": "[2]", "result": 1.67, "unit": "nM"}]}
{"binder": "B2", "values": [{"measurement": "Kd", "setting": "[3]", "result": 1.4, "unit": "nM"}, {"measurement": "Kd", "setting": "[1]", "result": 1.54, "unit": "nM"}, {"measurement": "Kd", "setting": "[2]", "result": 1.27, "unit": "nM"}]}
{"binder": "B3", "values": [{"measurement": "Kd", "setting": "[3]", "result": 1.7, "unit": "nM"}, {"measurement": "Kd", "setting": "[1]", "result": 1.08, "unit": "nM"}, {"measurement": "Kd", "setting": "[2]", "result": 1.75, "unit": "nM"}]}
{"binder": "B4", "values": [{"measurement": "Kd", "setting": "[3]", "result": 0.551, "unit": "nM"}, {"measurement": "Kd", "setting": "[1]", "result": 2.6, "unit": "nM"}, {"measurement": "Kd", "setting": "[2]", "result": 2.2, "unit": "nM"}]}
{"binder": "B5", "values": [{"measurement": "Kd", "setting": "[3]", "result": 2.61, "unit": "nM"}, {"measurement": "Kd", "setting": "[1]", "result": 0.893, "unit": "nM"}, {"measurement": "Kd", "setting": "[2]", "result": 1.72, "unit": "nM"}]}
{"binder": "B6", "values": [{"measurement": "Kd", "setting": "[3]", "result": 11.3, "unit": "nM"}, {"measurement": "Kd", "setting": "[1]", "result": 1.04, "unit": "nM"}, {"measurement": "Kd", "setting": "[2]", "result": 1.8, "unit": "nM"}]}
{"binder": "B7", "values": [{"measurement": "Kd", "setting": "[3]", "result": 0.0525, "unit": "nM"}, {"measurement": "Kd", "setting": "[1]", "result": 0.34, "unit": "nM"}, {"measurement": "Kd", "setting": "[2]", "result": 0.46, "unit": "nM"}]}
{"binder": "B8", "values": [{"measurement": "Kd", "setting": "[3]", "result": 2.75, "unit": "nM"}, {"measurement": "Kd", "setting": "[1]", "result": 1.01, "unit": "nM"}, {"measurement": "Kd", "setting": "[2]", "result": 1.75, "unit": "nM"}]}
